Data set [1] concerns the molecule itself. Description: cryo-EM structure; VaPomAB (PomB PGB removed) co-expressed and co-purified, in LMNG detergent, 20 mM HEPES pH 7.5, 300 mM NaCl, 0.0125% CHAPSO added; ~2.5 Å.
Data set [2] concerns the molecule itself. Nature of the data set: cryo-EM structure; full length, non-cleaved VaPomAB reconstituted into saposin nanodiscs with E. coli polar lipids; 6.3 Å map.

Usually stoichiometry N stands for a count of units in the complex or per binding partner.

B1: Vibrio alginolyticus PomB without the peptidoglycan binding domain (PGB removed by HRV 3C protease at a site inserted between Gln95 and Gln96) (domain or fragment)
chain: MDDEDNKCDCPPPGLPLWMGTFADLMSLLMCFFVLLLSFSEMDVLKFKQIAGSMKFAFGVQNQLEVKDIPKGTSIIAQEFRPGRPEPTPIDVIMQGTLEVLFQ
notes: PomB of Vibrio alginolyticus (ATCC 17749), from the N-terminus to Gln95 (TM helix, plug motif and what follows, up to the inserted protease site); That the twin-Strep-tag sat at the C-terminus of PomB and left with the PGB domain is surmised; also called VaPomB; VaPomAB without PomB PGB; not shown: twin-Strep-tag, C-terminal, cleaved
As to B1, the “stoichiometry N” value in data set [1] amounted to 2.

B2: Vibrio alginolyticus PomB, full length, non-cleaved (without protease insertion) (natural protein)
chain: MDDEDNKCDCPPPGLPLWMGTFADLMSLLMCFFVLLLSFSEMDVLKFKQIAGSMKFAFGVQNQLEVKDIPKGTSIIAQEFRPGRPEPTPIDVIMQQTMDITQQTLEFHEGESDRAGGTKRDEGKLTGGQSPATSTQNNESAEADMQQQQSKEMSQEMETLMESIKKALEREIEQGAIEVENLGQQIVIRMREKGAFPEGSAFLQPKFRPLVRQIAELVKDVPGIVRVSGHTDNRPLDSELYRSNWDLSSQRAVSVAQEMEKVRGFSHQRLRVRGMADTEPLLPNDSDDNRALNRRVEISIMQGEPLYSEEVPVIQ
notes: That the tag is on PomB is surmised; Only a 6.3 Å map (EMD-16214) was deposited, no model; also called full length VaPomAB
Regarding B2, the binding result in data set [2] was “binds”.
